# Results from article PMC8431786, “In Search of Monocot Phosphodiesterases: Identification of a Calmodulin Stimulated Phosphodiesterase from Brachypodium distachyon” (International Journal of Molecular Sciences, 2021).
# Substrate: [H][C@@]12COP(=O)(O)O[C@@]1([H])[C@@H](O)[C@H](n1cnc3c(=O)[nH]c(N)nc31)O2
# Test: LC-MS/MS of GMP formed, Michaelis-Menten fit
# Format: biochemical, Brachypodium distachyon
# Settings: 3 mM Tris-HCl pH 8.0, 37 °C, 25 min, 0.5 mM MgCl2 and MnCl2, 0.1% 2-mercaptoethanol, no calmodulin
protein,measurement,value
"BDPDE1 (Brachypodium distachyon) (protein, GST-BDPDE1 fusion (pGEX-6P-2, N-terminal GST kept), cDNA from leaf and stalk RNA, E. coli BL21(DE3) pLysS, glutathione-Sepharose) MWPASKTQMHMFCLCRLDQPSCLVIGSARSINASTPKELSQNASSREIENRLLRVRRSATTGRSEPLARFNHPIQFQHARPPPAPAHGAHEGKKMAAAAVRRAEELVEREMSGRDASHDAAHALRVRDLALSLAAEQGLSSPDRLLIVELAALLHDIGDYKYTKDNMEDMSIVERFLQDVGLEKGQREEIVSIITGMGFKNEVSGKAAEPTLEFAVVQDADRLDAIGAIGVARCFTYGGSKNSALHDPKVLPRDNLSKEKYMSKEKQTSINHFHEKLFKLKDMMKTEAGKRRAEKRHKFMEDFVAEFYEEWSGRA",Km,113.3 µM
